From US7422862B2, “Methods for identifying modulators of apoptosis” (The Burnham Institute, priority 2001, dated 2008)
No end group written: not given here.

Assays:
Bcl-XL = Bcl-XL (Homo sapiens, UniProt Q07817); test: Fluorescence polarization assay, Bcl-XL specificity control; assay type: binding
GFP-Bax = target: T1, GFP-Bax (Homo sapiens, UniProt Q07812); test: STS-induced GFP-Bax translocation to mitochondria in Cos7 cells (confocal microscopy); assay type: cell-based; details: peptide transduced with Chariot, 1 μM STS
T1 construct: expressed in transfected cells; host or cells: Cos-7
Method: (§1) (A-B) Humanin peptide prevents STS-induced Bax translocation in vivo. Cos-7 cells were first transfected with GFP-Bax plasmids. After 24 hrs, untagged wild-type or C8P mutant Humanin peptides were introduced into cells using ChariotTM reagent, and 2 h later cells were treated with 1 μM STS. After 4 h, the percentage of cells with translocated Bax was determined (mean±SD; n=3) by confocal microscopy (A) and representative photomicrographs (B). (C) Wild-type or C8P mutant Humanin peptides were introduced into Cos7 cells using ChariotTM reagent. Cytosolic (C) and mitochondria-containing (M) fractions were isolated by differential centrifugation 23 and analyzed by immunoblotting using anti-Bax (top), Hsp60 (middle) (mitochondrial marker), or Tubulin (bottom) (cytosol marker) antibodies. (D) HN or mutant control double-strand siRNAs were transfected into SF268 cells. After 48 h, cells were cultured without (Control) or with 0.1 uM STS. After 24 hr, cells were fractionated and analyzed by immunoblotting as above. (E) Isolated mitochondria were mixed with 400 ng Bax protein, with or without preincubating Bax with 100 uM Humanin or Humanin(C8P) peptides for 10 min. After 3 h at 30° C., mitochondria were centrifuged and the resulting pellets (P) and supernatants (S) were analyzed by immunoblotting using anti-Cytochrome c (top), Hsp60 (middle), and Bax (bottom) antibodies. […]

endogenous Bax protein = test: Subcellular fractionation and immunoblot of endogenous Bax after STS; assay type: cell-based; details: Cos7 cells, untagged peptides, STS
Method: as §1, with “(E) Isolated mitochondria were mixed with 400 ng Bax protein, with or without preincubating Bax with 100 uM Humanin or Humanin(C8P) peptides for 10 min.” left out
These findings were also confirmed by subcellular fractionation, where cytosol and mitochondria-enriched heavy membrane preparations were prepared from Cos7 cells transduced with untagged Humanin or Humanin(C8P) peptides, and the relative amounts of endogenous Bax protein in these two fractions were measured by immunoblot analysis of samples normalized for cell-equivalents. […] Differences in the relative potency of Humanin at blocking Bax translocation as measured by microscopy (FIG. 7A) versus cell fractionation methods (FIG. 7C) can be explained by differences in the sensitivity of the assays, or could possibly indicate that even in cells where some Bax translocation has occurred, less of the total Bax protein associated with mitochondria. […]

purified recombinant Bax [1] = target: T2, purified recombinant Bax (Homo sapiens, UniProt Q07812); test: Isolated mitochondria: Bax association and cytochrome c release assay; assay type: biochemical; details: 100 μM peptide preincubated with Bax, HCT116 mitochondria
Method: (A-B) Humanin peptide prevents STS-induced Bax translocation in vivo. Cos-7 cells were first transfected with GFP-Bax plasmids. After 24 hrs, untagged wild-type or C8P mutant Humanin peptides were introduced into cells using ChariotTM reagent, and 2 h later cells were treated with 1 μM STS. After 4 h, the percentage of cells with translocated Bax was determined (mean±SD; n=3) by confocal microscopy (A) and representative photomicrographs (B). (C) Wild-type or C8P mutant Humanin peptides were introduced into Cos7 cells using ChariotTM reagent. Cytosolic (C) and mitochondria-containing (M) fractions were isolated by differential centrifugation 23 and analyzed by immunoblotting using anti-Bax (top), Hsp60 (middle) (mitochondrial marker), or Tubulin (bottom) (cytosol marker) antibodies. (D) HN or mutant control double-strand siRNAs were transfected into SF268 cells. After 48 h, cells were cultured without (Control) or with 0.1 uM STS. After 24 hr, cells were fractionated and analyzed by immunoblotting as above. (E) Isolated mitochondria were mixed with 400 ng Bax protein, with or without preincubating Bax with 100 uM Humanin or Humanin(C8P) peptides for 10 min. After 3 h at 30° C., mitochondria were centrifuged and the resulting pellets (P) and supernatants (S) were analyzed by immunoblotting using anti-Cytochrome c (top), Hsp60 (middle), and Bax (bottom) antibodies. (F) HN peptide enforces the interaction of Bax TM domain with Bax.TM. Lysates from HEK293T cells expressing Flag-Bax.TM were pretreated with or without Humanin or Humanin(C8P) peptides. Lysates were then mixed in vitro with lysates of HEK293T cells expressing GFP-TM(Bax). Immunoprecipitations were performed with anti-Flag antibody, analyzing lysates and immunoprecipitates (IP) by immunoblotting using monoclonal anti-GFP antibody.
To determine whether Humanin can act directly on Bax, the effects of Humanin on isolated mitochondria were tested. Addition of recombinant purified Bax protein to mitochondria in vitro induces cytochrome c release (Jurgensmeier et al., Proc. Natl. Acad. Sci. USA 95:4997-5002 (1998)). […] Therefore Humanin can directly suppress Bax targeting to mitochondria, without requirement for intact cells.
Cytochrome c release assays were performed as follows. Mitochondria were isolated from HCT116 cells by differential centrifugation as described above. Purified recombinant human Bax protein (400 ng for each sample) was pre-incubated with or without 100 μM synthetic Humanin peptide or mutant Humanin (C8P) peptide for 10 min at 4° C. The untreated or peptide pre-treated Baxprotein samples were then mixed with equal amount of HCT116 mitochondria (in a volume of 40 μl) at 30° C. for 3 hours. […]

BaxΔTM = target: T3, BaxΔTM (Homo sapiens, UniProt Q07812); test: Co-immunoprecipitation of BaxΔTM with GFP-TM(Bax); assay type: binding; details: lysates pre-incubated with peptide
T3 construct: a C-terminally truncated Bax protein (residues 1-169) (BaxΔTM); expressed in transfected cells; host or cells: HEK293T (lysates mixed in vitro)
Method: as §1

Bax = test: Bax-induced lethality in yeast; assay type: cell-based, S. cerevisiae; details: TAD-fusion polypeptide, galactose-induced Bax
purified recombinant Bax [2] = target: T2, purified recombinant Bax; test: Fluorescence polarization assay (FPA) of rhodamine-labelled peptide binding to Bax; parameters: full-length Bax protein was produced in bacteria and purified; made in house; host or cells: E. coli BL21; details: rhodamine-labelled control peptides
Method: (C) The affinity (Kd) of Bax/HN interaction was measured by fluorescence polarization assay, using various concentrations of purified recombinant Bax and 40 nM rhodamine-conjugated HN peptide. Control peptide from CD40 is also shown (mean +Std Dev; n=3).
In this example, the in vitro binding assay is a fluorescence polarization assay (FPA). For this experiment, full-length Bax protein was produced in bacteria and purified. Various concentrations of Bax protein were incubated with 40 nM of rhodamine-conjugated synthetic purified Humanin peptide. The extent of peptide binding was then monitored by measuring polarization of monochromatic light passed through the sample, where peptide binding to the bulkier protein slows the rate of peptide tumbling in solution, enhancing the polarization effect.
Fluorescence Polarization Assays were performed as follows. Recombinant Bax protein was isolated from E. coli BL21 harboring pTYB1-Bax essentially as described (Suzuki et al., Cell 103:645-654 (2000)). For fluorescence polarization assays (FPA), various concentrations of Bax protein were incubated with 40 nM of rhodamine-conjugated synthetic purified Humanin peptide dissolved in water for 30 minutes in dark. Fluorescence polarization was measured using an AnalystTM AD Assay Detection System (LJL Biosystem, Sunnyvale, Calif.).

T2 sequence (Q07812 whole entry): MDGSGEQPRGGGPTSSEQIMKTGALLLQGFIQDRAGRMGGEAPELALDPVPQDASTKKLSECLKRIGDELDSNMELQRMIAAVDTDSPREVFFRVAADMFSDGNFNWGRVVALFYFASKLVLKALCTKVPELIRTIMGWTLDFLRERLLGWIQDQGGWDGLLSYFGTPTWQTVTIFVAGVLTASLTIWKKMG
T1 sequence (Q07812 whole entry): as above
T3 sequence (Q07812 1-169, stated change not applied): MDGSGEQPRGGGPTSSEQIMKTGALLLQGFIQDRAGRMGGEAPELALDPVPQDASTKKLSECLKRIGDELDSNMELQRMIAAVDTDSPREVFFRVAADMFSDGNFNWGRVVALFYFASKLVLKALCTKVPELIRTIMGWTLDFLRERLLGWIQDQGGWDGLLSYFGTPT
T3 sequence (Q07812 170-192 partner limits assumed): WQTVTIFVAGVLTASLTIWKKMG
Bcl-XL, sequence (Q07817 whole entry, species assumed): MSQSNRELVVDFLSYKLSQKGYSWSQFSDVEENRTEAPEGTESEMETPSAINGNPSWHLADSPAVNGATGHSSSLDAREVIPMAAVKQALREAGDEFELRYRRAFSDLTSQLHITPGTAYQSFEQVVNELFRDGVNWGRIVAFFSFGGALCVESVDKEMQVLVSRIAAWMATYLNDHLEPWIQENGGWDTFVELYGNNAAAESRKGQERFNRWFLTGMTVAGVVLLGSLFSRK

CC[C@H](C)[C@H](NC(=O)[C@H](CCC(=O)O)NC(=O)[C@H](CO)NC(=O)[C@@H](NC(=O)[C@H](CC(C)C)NC(=O)[C@H](CC(C)C)NC(=O)[C@H](CC(C)C)NC(=O)[C@H](CC(C)C)NC(=O)[C@H](CS)NC(=O)[C@H](CO)NC(=O)[C@H](Cc1ccccc1)NC(=O)CNC(=O)[C@H](CCCNC(=N)N)NC(=O)[C@@H]1CCCN1C(=O)[C@H](C)NC(=O)[C@H](CCSC)NC(=O)CCCCCNC(=O)c1ccccc1-c1c2ccc(=[N+](CC)CC)cc-2oc2cc(N(CC)CC)ccc12)[C@@H](C)O)C(=O)N[C@@H](CC(=O)O)C(=O)N[C@@H](CC(C)C)C(=O)N1CCC[C@H]1C(=O)N[C@H](C(=O)N[C@@H](CCCCN)C(=O)N[C@@H](CCCNC(=N)N)C(=O)N[C@@H](CCCNC(=N)N)C(=O)N[C@@H](C)C(N)=O)C(C)C [rhodamine-HN]
binding to Bcl-XL in fluorescence polarization assay (Bcl-XL): did not bind

Humanin(C8P): synthetic Humanin peptide (or TAD-fusion in yeast) with C8P mutation, non-Bax-binding (MAPRGFSPLLLLTSEIDLPVKRRA; UniProt Q8IVG9 1-24, looked up, variant C8P)
suppression of GFP-Bax translocation (GFP-Bax): not
Bax translocation by subcellular fractionation (endogenous Bax protein): no effect
Bax association with mitochondria (purified recombinant Bax [1]): did not interfere
cytochrome c release (purified recombinant Bax [1]): did not interfere
interaction of BaxΔTM with GFP-TM (BaxΔTM): did not promote
rescue of yeast from Bax-induced lethality (Bax): did not rescue

rhodamine-CD40: rhodamine-labelled control peptide from CD40 (residue 250P to 266G) (PVQETLHGCQPVTQEDG; also: rhodamine label; UniProt P25942 250-266, looked up, fragment)
interaction with Bax in fluorescence polarization assay (purified recombinant Bax [2]): did not display interactions
